Results reported in publication PMC6265330, “Compositional adaptability in NPM1-SURF6 scaffolding networks enabled by dynamic switching of phase separation mechanisms” (Nature Communications, 2018).

Biological target: T1, S6N, N-terminal fragment of Surfeit locus protein 6 (SURF6), residues 1-182 (human, UniProt O75683 1-182)
T1 construct: Surfeit locus protein 6 (SURF6), human, 361 amino acids; N-terminal construct of residues 1-182 with R-motifs R1 and R2; In imaging experiments 10% was labelled with Alexa Fluor 647 at Cys19; also called SURF6 N-terminal construct; source: E. coli BL21 Rosetta 2 (DE3), purified from inclusion bodies (Ni-NTA under denaturing conditions, TEV cleavage, C4 HPLC)
T1 sequence (looked up): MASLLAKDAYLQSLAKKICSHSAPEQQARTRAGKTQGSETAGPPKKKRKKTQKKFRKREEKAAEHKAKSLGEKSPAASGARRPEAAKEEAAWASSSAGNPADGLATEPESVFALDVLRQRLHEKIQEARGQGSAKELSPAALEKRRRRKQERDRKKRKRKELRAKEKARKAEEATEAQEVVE
Assay: not stated; method and conditions not shown in the main text (Supplementary Fig. 13)
Details: both partners purified

B1: IDR of NPM1 (domain or fragment, UniProt P06748 120-240, looked up)
chain: EEDAESEDEEEEDVKLLSISGKRSAPGGGSKVPQKKVKLAADEDDDDDDEEDDDEDDDDDDFDDEEAEEKAPVKKSIRDTPAKNAQKSNQNGKDSKPSSTPRSKGQESFKKQEKTPKTPKG
notes: Nucleophosmin (NPM1), central intrinsically disordered region; also called NPM1-IDR
**Q.** How did the Kd turn out when B1 was run?
**A.** 0.35 µM
